Data taken from PMC6338448 (Cell reports, 2018).
Read-outs that look alike come from different tables or passages of the source. One block for each binder: values may come before it.

Key:
[1] = target: T1, recombinant soluble (ΔGPI) Fc-tagged RECK (sRECK-Fc) (human, UniProt O95980 23-942); test: pull-down
T1 sequence (looked up): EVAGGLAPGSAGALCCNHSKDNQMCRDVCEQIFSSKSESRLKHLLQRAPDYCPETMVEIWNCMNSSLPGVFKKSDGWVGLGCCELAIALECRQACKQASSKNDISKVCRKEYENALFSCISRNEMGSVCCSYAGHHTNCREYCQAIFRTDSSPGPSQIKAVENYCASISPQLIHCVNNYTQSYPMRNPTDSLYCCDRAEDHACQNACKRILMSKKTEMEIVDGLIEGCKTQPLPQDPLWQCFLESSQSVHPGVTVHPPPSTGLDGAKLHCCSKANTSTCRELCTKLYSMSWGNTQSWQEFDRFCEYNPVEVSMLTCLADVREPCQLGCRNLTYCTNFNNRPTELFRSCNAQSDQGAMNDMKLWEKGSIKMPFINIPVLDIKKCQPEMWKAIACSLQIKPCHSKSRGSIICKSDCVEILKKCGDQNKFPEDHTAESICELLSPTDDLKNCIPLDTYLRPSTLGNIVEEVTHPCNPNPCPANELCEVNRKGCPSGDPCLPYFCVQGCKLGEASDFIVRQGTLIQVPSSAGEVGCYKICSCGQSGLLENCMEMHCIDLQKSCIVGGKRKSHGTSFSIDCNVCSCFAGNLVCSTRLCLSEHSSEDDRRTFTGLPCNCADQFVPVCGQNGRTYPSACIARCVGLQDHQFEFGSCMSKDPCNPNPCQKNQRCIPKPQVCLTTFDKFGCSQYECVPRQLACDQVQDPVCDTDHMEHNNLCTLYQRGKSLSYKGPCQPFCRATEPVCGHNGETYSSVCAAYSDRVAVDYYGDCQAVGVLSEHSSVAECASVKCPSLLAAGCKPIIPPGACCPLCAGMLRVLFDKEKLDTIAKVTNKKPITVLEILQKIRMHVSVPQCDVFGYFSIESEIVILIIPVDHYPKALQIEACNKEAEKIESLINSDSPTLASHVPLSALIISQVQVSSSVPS

[2] = target: T2, C-terminally His-tagged soluble RECK (sRECK-His) (human, UniProt O95980 23-942); test: cross-linking
T2 sequence (looked up): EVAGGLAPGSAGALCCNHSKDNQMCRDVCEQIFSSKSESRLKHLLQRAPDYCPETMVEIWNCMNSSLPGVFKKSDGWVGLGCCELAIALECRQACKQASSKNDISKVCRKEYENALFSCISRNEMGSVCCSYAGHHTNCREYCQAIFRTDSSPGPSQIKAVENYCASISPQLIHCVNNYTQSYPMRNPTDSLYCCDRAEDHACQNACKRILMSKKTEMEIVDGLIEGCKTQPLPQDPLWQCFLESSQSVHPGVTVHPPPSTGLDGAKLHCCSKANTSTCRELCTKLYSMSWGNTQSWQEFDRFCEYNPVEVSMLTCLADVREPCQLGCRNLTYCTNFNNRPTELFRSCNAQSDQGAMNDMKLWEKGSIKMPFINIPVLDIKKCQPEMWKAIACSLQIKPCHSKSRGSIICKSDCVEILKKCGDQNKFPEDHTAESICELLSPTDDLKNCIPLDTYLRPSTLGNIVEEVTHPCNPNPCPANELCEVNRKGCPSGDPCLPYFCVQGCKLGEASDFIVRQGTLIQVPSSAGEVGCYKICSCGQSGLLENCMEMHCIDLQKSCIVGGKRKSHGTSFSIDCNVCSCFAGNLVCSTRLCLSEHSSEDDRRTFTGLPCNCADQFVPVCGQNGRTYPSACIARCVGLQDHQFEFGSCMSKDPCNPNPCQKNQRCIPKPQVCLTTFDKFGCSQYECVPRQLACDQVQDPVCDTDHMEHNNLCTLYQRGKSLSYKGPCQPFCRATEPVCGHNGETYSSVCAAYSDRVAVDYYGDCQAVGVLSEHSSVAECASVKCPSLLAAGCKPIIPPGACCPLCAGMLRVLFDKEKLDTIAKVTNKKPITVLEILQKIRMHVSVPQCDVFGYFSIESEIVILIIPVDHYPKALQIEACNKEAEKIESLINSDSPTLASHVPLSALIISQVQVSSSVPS

[3] = target: T1, recombinant soluble (ΔGPI) Fc-tagged …; test: pull-down; remark: listed apart in the source

binding result [1]: binds
B1: sGPR124 ΔHRM (Δaa 349 - 426) (domain or fragment, human)
chain: APGCPLSIRSCKCSGERPKGLSGGVPGPARRRVVCSGGDLPEPPEPGLLPNGTVTLLLSNNKITGLRNGSFLGLSLLEKLDLRNNIISTVQPGAFLGLGELKRLDLSNNRIGCLTSETFQGLPRLLRLNISGNIFSSLQPGVFDELPALKVVDLGTEFLTCDCHLRWLLPWAQNRSLQLSEHTLCAYPSALHAQALGSLQEAQLCCEGALELHTHHLIPSLRQVVFQGDRLPFQCSASYLGNDTRIRWYHNRAPVEGDEQAGILLAESLIHDCTFITSELTLSHIGVWASGEWECTVSMAQGNASKKVEIVVLETLYTFVLMPINASNALTLAHQLRVYTAEAASFSDMMDVVYVAQMIQKFLGYVDQIKELVEVMVDMASNLMLVDEHLLWLAQREDKACSRIVGALERIGGAALSPHAQHISVNARNVALEAYLIKPHSYVGLTCTAFQRREGGVPGTRPGSPGQNPPPEPEPPADQQLRFRCTTGRPNVSLSSFHIKNSVALASIQLPPSLFSSLPAALAPPVPPDCTLQLLVFRNGRLFHSHSNTSRPGAAGPGKRRGVATPVIFAGTSGCGVGNLTEPVAVSLRHWAEGAEPVAAWWSQEGPGEAGGWTSEGCQLRSSQPNVSALHCQHLGNVAVLMELDGGGS

stoichiometry N [2]: 1
B2: WNT7A (co-expressed with sRECK-His in Expi293F cells) (ligand, human, UniProt O00755 32-349, looked up)
chain: LGASIICNKIPGLAPRQRAICQSRPDAIIVIGEGSQMGLDECQFQFRNGRWNCSALGERTVFGKELKVGSREAAFTYAIIAAGVAHAITAACTQGNLSDCGCDKEKQGQYHRDEGWKWGGCSADIRYGIGFAKVFVDAREIKQNARTLMNLHNNEAGRKILEENMKLECKCHGVSGSCTTKTCWTTLPQFRELGYVLKDKYNEAVHVEPVRASRNKRPTFLKIKKPLSYRKPMDTDLVYIEKSPNYCEEDPVTGSVGTQGRACNKTAPQASGCDLMCCGRGYNTHQYARVWQCNCKFHWCCYVKCNTCSERTEMYTCK

binding result [3]: binds
B3: recombinant soluble GPR124 ECD (sGPR124), C-terminally His-tagged (domain or fragment)
chain: APGCPLSIRSCKCSGERPKGLSGGVPGPARRRVVCSGGDLPEPPEPGLLPNGTVTLLLSNNKITGLRNGSFLGLSLLEKLDLRNNIISTVQPGAFLGLGELKRLDLSNNRIGCLTSETFQGLPRLLRLNISGNIFSSLQPGVFDELPALKVVDLGTEFLTCDCHLRWLLPWAQNRSLQLSEHTLCAYPSALHAQALGSLQEAQLCCEGALELHTHHLIPSLRQVVFQGDRLPFQCSASYLGNDTRIRWYHNRAPVEGDEQAGILLAESLIHDCTFITSELTLSHIGVWASGEWECTVSMAQGNASKKVEIVVLETSASYCPAERVANNRGDFRWPRTLAGITAYQSCLQYPFTSVPLGGGAPGTRASRRCDRAGRWEPGDYSHCLYTNDITRVLYTFVLMPINASNALTLAHQLRVYTAEAASFSDMMDVVYVAQMIQKFLGYVDQIKELVEVMVDMASNLMLVDEHLLWLAQREDKACSRIVGALERIGGAALSPHAQHISVNARNVALEAYLIKPHSYVGLTCTAFQRREGGVPGTRPGSPGQNPPPEPEPPADQQLRFRCTTGRPNVSLSSFHIKNSVALASIQLPPSLFSSLPAALAPPVPPDCTLQLLVFRNGRLFHSHSNTSRPGAAGPGKRRGVATPVIFAGTSGCGVGNLTEPVAVSLRHWAEGAEPVAAWWSQEGPGEAGGWTSEGCQLRSSQPNVSALHCQHLGNVAVLMELDGGGS
